Data set [1] relates to HeLa Kyoto. Briefly: solubility in G1/S (NP-40 vs SDS abundance) (log2 ratio); higher = more soluble. The settings on record: cell cycle stage: G1/S.
Data set [2] relates to HeLa Kyoto. In words: melting temperature (median over replicates), in situ; higher = more thermally stable.
The subject of data set [3] is HeLa Kyoto. Briefly: solubility change mitosis vs G1/S (difference of NP-40 vs SDS log2 ratios) (log2 ratio difference); higher = more soluble in mitosis.
For data set [4], the system named is HeLa Kyoto. Briefly: thermal stability score vs G1/S (z-score of summed log2 fold changes over temperatures); higher = more thermally stable than in G1/S.
Where [5] appears, read: cell cycle stage: early G1 (4.5 h after nocodazole release).
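Wherever melting temperature (median over replicates), in situ is given: HeLa Kyoto cells synchronized by double thymidine or nocodazole block, proteins quantified by TMT10plex mass spectrometry, three independent biological replicates.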
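Wherever solubility change mitosis vs G1/S (difference of NP-40 vs SDS log2 ratios) is given: synchronized HeLa Kyoto cells (double thymidine block for G1/S, nocodazole release for mitosis), protein amounts in NP-40 versus SDS lysates quantified by mass spectrometry, three biological replicates.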
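Wherever solubility in G1/S (NP-40 vs SDS abundance) is given: HeLa Kyoto cells arrested at G1/S by double thymidine block, proteins quantified by TMT10plex mass spectrometry in mild NP-40 versus SDS extracts, three biological replicates.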
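Wherever thermal stability score vs G1/S (z-score of summed log2 fold changes over temperatures) is given: synchronized HeLa Kyoto cells, proteins quantified by TMT10plex mass spectrometry, three biological replicates, mitosis taken 0.5 h after nocodazole release, G1/S directly after double thymidine block.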

Sequence of COPE (chain, as listed by the source): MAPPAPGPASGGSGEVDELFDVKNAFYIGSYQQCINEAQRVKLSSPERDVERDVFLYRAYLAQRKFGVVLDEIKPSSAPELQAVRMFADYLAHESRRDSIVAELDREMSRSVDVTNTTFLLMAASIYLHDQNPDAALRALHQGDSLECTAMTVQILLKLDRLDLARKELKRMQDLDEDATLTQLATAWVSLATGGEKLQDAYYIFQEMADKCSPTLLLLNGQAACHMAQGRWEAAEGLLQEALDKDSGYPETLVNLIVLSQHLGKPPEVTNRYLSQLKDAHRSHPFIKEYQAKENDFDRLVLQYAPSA

Regarding “MASTSYDYCRVPMEDGDKRCKLLLGIGILVLLIIVILGVPLIIFTIKANSEACRDGLRAVMECRNVTHLLQQELTEAQKGFQDVEAQAATCNHTVMALMASLDAEKAQGQKKVEELEGEITTLNHKLQDASAEVERLRRENQVLSVRIADKKYYPSSQDSSSAAAPQLLIVLLGLSALLQ [BST2]”, the “solubility in G1/S (log2)” value in the data set on HeLa Kyoto [1] was -0.713. Also, the figures for the melting temperature with HeLa Kyoto [2] (cell cycle stage: G1/S) and in the data set with HeLa Kyoto [2] (cell cycle stage: mitosis) were 57.4 °C and 56.4 °C, respectively. Further, the “solubility change mitosis (log2)” value in the data set with HeLa Kyoto [3] turned out to be 0.237. The thermal stability score is -4.66 with HeLa Kyoto [4] (setting [5]) and -5.14 with HeLa Kyoto [4] (cell cycle stage: mitosis).
Take “MRPQELPRLAFPLLLLLLLLLPPPPCPAHSATRFDPTWESLDARQLPAWFDQAKFGIFIHWGVFSVPSFGSEWFWWYWQKEKIPKYVEFMKDNYPPSFKYEDFGPLFTAKFFNANQWADIFQASGAKYIVLTSKHHEGFTLWGSEYSWNWNAIDEGPKRDIVKELEVAIRNRTDLRFGLYYSLFEWFHPLFLEDESSSFHKRQFPVSKTLPELYELVNNYQPEVLWSDGDGGAPDQYWNSTGFLAWLYNESPVRGTVVTNDRWGAGSICKHGGFYTCSDRYNPGHLLPHKWENCMTIDKLSWGYRREAGISDYLTIEELVKQLVETVSCGGNLLMNIGPTLDGTISVVFEERLRQMGSWLKVNGEAIYETHTWRSQNDTVTPDVWYTSKPKEKLVYAIFLKWPTSGQLFLGHPKAILGATEVKLLGHGQPLNWISLEQNGIMVELPQLTIHQMPCKWGWALALTNVI [FUCA2]”: the “solubility in G1/S (log2)” value in the data set on HeLa Kyoto [1] is -0.00865. In addition, the melting temperature in the data set on HeLa Kyoto [2] (cell cycle stage: G1/S) and in the data set on HeLa Kyoto [2] (cell cycle stage: mitosis) was 54.8 °C in each case. In addition, the “solubility change mitosis (log2)” value in the data set on HeLa Kyoto [3] is -0.00976. In addition, the thermal stability score in the data set on HeLa Kyoto [4] (setting [5]) is 2.46; in the data set with HeLa Kyoto [4] (cell cycle stage: mitosis) it was 3.64.
For the substance COPE, in the data set on HeLa Kyoto [1], the “solubility in G1/S (log2)” value was determined as 0.212. The melting temperature in the data set with HeLa Kyoto [2] (cell cycle stage: G1/S) is 50.3 °C; in the data set with HeLa Kyoto [2] (cell cycle stage: mitosis), 50.9 °C. In addition, in the data set on HeLa Kyoto [3], the “solubility change mitosis (log2)” value was 0.0106. Besides, the results for the thermal stability score with HeLa Kyoto [4] (setting [5]) and in the data set with HeLa Kyoto [4] (cell cycle stage: mitosis) were -0.526 and -0.936, respectively.
Regarding “MEGCVSNLMVCNLAYSGKLEELKESILADKSLATRTDQDSRTALHWACSAGHTEIVEFLLQLGVPVNDKDDAGWSPLHIAASAGRDEIVKALLGKGAQVNAVNQNGCTPLHYAASKNRHEIAVMLLEGGANPDAKDHYEATAMHRAAAKGNLKMIHILLYYKASTNIQDTEGNTPLHLACDEERVEEAKLLVSQGASIYIENKEEKTPLQVAKGGLGLILKRMVEG [PSMD10]”, in the data set on HeLa Kyoto [1], the “solubility in G1/S (log2)” value was found to be 0.145. The melting temperature in the data set with HeLa Kyoto [2] (cell cycle stage: G1/S) came out at 48.5 °C; in the data set with HeLa Kyoto [2] (cell cycle stage: mitosis), 49.8 °C. For the same substance, the “solubility change mitosis (log2)” value in the data set with HeLa Kyoto [3] is 0.136. The thermal stability score in the data set on HeLa Kyoto [4] (setting [5]) came out at 0.248; in the data set with HeLa Kyoto [4] (cell cycle stage: mitosis), 1.31.
As for “MALASVLERPLPVNQRGFFGLGGRADLLDLGPGSLSDGLSLAAPGWGVPEEPGIEMLHGTTTLAFKFRHGVIVAADSRATAGAYIASQTVKKVIEINPYLLGTMAGGAADCSFWERLLARQCRIYELRNKERISVAAASKLLANMVYQYKGMGLSMGTMICGWDKRGPGLYYVDSEGNRISGATFSVGSGSVYAYGVMDRGYSYDLEVEQAYDLARRAIYQATYRDAYSGGAVNLYHVREDGWIRVSSDNVADLHEKYSGSTP [PSMB5]”, the “solubility in G1/S (log2)” value in the data set on HeLa Kyoto [1] is -0.00915. The melting temperature was determined as 63.3 °C in the data set on HeLa Kyoto [2] (cell cycle stage: G1/S) and 61.5 °C with HeLa Kyoto [2] (cell cycle stage: mitosis). Also, the “solubility change mitosis (log2)” value with HeLa Kyoto [3] was -0.142. Further, the thermal stability score was -2.01 in the data set on HeLa Kyoto [4] (setting [5]) and -3.9 in the data set on HeLa Kyoto [4] (cell cycle stage: mitosis).
On to “METVISSDSSPAVENEHPQETPESNNSVYTSFMKSHRCYDLIPTSSKLVVFDTSLQVKKAFFALVTNGVRAAPLWDSKKQSFVGMLTITDFINILHRYYKSALVQIYELEEHKIETWREVYLQDSFKPLVCISPNASLFDAVSSLIRNKIHRLPVIDPESGNTLYILTHKRILKFLKLFITEFPKPEFMSKSLEELQIGTYANIAMVRTTTPVYVALGIFVQHRVSALPVVDEKGRVVDIYSKFDVINLAAEKTYNNLDVSVTKALQHRSHYFEGVLKCYLHETLETIINRLVEAEVHRLVVVDENDVVKGIVSLSDILQALVLTGGEKKP [PRKAG1]”, for which the “solubility in G1/S (log2)” value in the data set on HeLa Kyoto [1] worked out at 0.164. Further, the figures for the melting temperature with HeLa Kyoto [2] (cell cycle stage: G1/S) and with HeLa Kyoto [2] (cell cycle stage: mitosis) were 50.7 °C and 51.2 °C, respectively. Besides, in the data set with HeLa Kyoto [3], the “solubility change mitosis (log2)” value was -0.127. Besides, the thermal stability score is 0.779 with HeLa Kyoto [4] (setting [5]) and 1.52 in the data set on HeLa Kyoto [4] (cell cycle stage: mitosis).
